1 molecule from patent US20170281788A1 can be followed below.

The target of the test is insulin receptor (IR-B), P06213. Nature of the test: cell-based or functional assay.

B1: GLP-1/insulin fusion GLP-DP8 (ligand)
chain: HAEGTFTSDVSSYLEEQAAREFIAWLVRGRGGPEHLCGAHLVDALYLVCGDRGFYFNDRGAGSSSRRGIVDECCHRSCDLRRLENYCN
For the molecule B1, the potency (activity at the insulin subtype B receptor) worked out at 9.9.
